In patent publication US20160368957A1:

Target: recombinant human IL-17A (human) (UniProt Q16552)
Assay: cell-based or functional assay

recombinant human IL-17A (human), sequence (Q16552 20-155 limits assumed): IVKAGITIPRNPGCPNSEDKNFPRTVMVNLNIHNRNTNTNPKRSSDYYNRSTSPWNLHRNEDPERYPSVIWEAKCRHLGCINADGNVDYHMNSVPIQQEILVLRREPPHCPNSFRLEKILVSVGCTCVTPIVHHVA

human IL-17A receptor-Fc chimera (R&D Systems) (from UniProt Q96F46 33-320) (Fc fusion)
IC50 of inhibition of IL-17A induced IL-6 production in NHDF cells (IL-17A 50 ng/ml): 1 nM | IC50 value (nM), IL-6 production by NHDF cells with IL-17A (1 ng/ml) and TNF alpha: 0.61 nM
